According to patent US20240024520A1 (UCB, published 2024):
Several values for one entry are separate records, joined by “and”; a condition that tells them apart may be missing. Equal entries are not always repeated. Where two headings read alike, the source gives them in different places.

How the values were obtained:
rat C5 = biological target: T1, rat C5 (Rattus norvegicus (rat), UniProt P08650 19-1681, limits assumed); test: SPR multi-cycle kinetics, rat C5 immobilised
T1 construct: also called C5 protein from Rattus norvegicus (rat)

[1] = biological target: T2, human complement component C5 (human, UniProt P01031 19-673; P01031 678-1676); test: cell-based or functional assay
[2] = biological target: T2, human complement component C5; test: cell-based or functional assay; remark: listed apart in the source
[3] = biological target: T2, human complement component C5; test: SPR multi-cycle kinetics, human C5 immobilised, mean of n=3
[4] = biological target: T2, human complement component C5; test: cell-based or functional assay; remark: listed apart in the source
[5] = biological target: T3, human complement component C3 (human, UniProt P01024 23-667; P01024 672-1663); test: SPR (Biacore), C3, mean of n=3
T3 construct: also called biotinylated C3

[6] = biological target: T3, human complement component C3; test: cell-based or functional assay
[7] = biological target: T2, human complement component C5; test: SPR (Biacore), C5
[8] = biological target: T3, human complement component C3; test: cell-based or functional assay; remark: listed apart in the source
[9] = biological target: T2, human complement component C5
mouse C5 = biological target: T4, mouse C5 (mouse, UniProt P06684 19-674; P06684 679-1680); test: SPR single-cycle kinetics
T4 construct: mature; also called mouse C5 protein

[10] = biological target: T2, human complement component C5; test: SPR single-cycle kinetics
[11] = biological target: T2, human complement component C5; test: cell-based or functional assay; remark: listed apart in the source
[12] = biological target: T2, human complement component C5; remark: listed apart in the source
[13] = biological target: T2, human complement component C5; test: cell-based or functional assay; remark: listed apart in the source
[14] = biological target: T2, human complement component C5; test: cell-based or functional assay; remark: listed apart in the source
[15] = biological target: T2, human complement component C5; test: cell-based or functional assay; remark: listed apart in the source
[16] = biological target: T2, human complement component C5; test: cell-based or functional assay; remark: listed apart in the source
[17] = biological target: T3, human complement component C3; test: counter screen
ovalbumin = biological target: T5, ovalbumin (UniProt P01012 2-386); test: counter screen
T5 sequence (looked up): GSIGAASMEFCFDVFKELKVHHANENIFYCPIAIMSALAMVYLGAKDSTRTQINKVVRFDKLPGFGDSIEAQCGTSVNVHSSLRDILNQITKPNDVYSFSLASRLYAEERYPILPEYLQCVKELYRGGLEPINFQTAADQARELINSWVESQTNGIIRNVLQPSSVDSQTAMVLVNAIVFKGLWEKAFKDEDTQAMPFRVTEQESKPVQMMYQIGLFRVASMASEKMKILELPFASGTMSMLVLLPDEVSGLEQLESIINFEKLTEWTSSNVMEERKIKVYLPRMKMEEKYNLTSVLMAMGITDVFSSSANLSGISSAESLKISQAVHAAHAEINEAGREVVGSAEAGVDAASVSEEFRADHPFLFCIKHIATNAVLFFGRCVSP

T3 sequence (P01024 23-667 limits assumed, chain 1 of 2): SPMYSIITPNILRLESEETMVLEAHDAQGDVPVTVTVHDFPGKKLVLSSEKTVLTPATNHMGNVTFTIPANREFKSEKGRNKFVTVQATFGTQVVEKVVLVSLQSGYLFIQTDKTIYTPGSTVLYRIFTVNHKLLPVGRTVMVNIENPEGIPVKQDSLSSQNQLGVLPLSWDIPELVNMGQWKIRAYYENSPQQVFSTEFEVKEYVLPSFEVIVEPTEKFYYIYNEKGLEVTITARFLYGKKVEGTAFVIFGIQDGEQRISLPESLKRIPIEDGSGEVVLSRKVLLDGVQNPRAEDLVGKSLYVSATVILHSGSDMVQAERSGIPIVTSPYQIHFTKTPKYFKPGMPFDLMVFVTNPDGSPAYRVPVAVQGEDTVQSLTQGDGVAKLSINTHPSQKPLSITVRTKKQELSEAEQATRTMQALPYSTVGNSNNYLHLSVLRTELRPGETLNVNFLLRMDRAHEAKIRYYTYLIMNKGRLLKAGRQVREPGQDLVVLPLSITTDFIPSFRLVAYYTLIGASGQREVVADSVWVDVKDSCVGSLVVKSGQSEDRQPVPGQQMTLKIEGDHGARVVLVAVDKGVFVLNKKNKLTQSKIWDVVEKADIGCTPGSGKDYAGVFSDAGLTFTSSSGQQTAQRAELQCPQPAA
T3 sequence (P01024 672-1663 limits assumed, chain 2 of 2): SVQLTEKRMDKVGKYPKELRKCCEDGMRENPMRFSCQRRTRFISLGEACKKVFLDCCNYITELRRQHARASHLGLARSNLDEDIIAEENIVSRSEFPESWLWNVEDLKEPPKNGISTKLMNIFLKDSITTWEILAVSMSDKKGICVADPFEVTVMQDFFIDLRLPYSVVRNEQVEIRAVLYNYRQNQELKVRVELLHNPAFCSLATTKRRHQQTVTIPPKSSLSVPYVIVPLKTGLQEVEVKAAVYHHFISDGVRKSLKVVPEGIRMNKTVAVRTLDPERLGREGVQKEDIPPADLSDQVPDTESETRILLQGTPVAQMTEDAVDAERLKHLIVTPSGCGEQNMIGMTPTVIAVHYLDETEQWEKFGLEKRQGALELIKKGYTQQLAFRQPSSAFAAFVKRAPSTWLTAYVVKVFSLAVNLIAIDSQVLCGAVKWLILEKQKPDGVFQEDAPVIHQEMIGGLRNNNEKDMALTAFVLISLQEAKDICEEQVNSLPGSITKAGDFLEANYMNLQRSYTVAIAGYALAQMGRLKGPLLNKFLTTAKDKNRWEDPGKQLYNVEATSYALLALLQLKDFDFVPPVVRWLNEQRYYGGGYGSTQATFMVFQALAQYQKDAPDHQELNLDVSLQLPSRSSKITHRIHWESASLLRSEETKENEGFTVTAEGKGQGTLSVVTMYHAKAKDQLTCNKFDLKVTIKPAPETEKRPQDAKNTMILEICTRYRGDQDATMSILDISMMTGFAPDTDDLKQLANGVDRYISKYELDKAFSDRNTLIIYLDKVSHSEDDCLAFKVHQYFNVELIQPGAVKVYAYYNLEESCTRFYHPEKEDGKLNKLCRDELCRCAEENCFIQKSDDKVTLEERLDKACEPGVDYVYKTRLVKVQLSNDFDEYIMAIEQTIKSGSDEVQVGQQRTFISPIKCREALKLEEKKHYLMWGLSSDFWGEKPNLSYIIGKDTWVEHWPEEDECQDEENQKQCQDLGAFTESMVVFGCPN
T2 sequence (P01031 19-673 limits assumed, chain 1 of 2): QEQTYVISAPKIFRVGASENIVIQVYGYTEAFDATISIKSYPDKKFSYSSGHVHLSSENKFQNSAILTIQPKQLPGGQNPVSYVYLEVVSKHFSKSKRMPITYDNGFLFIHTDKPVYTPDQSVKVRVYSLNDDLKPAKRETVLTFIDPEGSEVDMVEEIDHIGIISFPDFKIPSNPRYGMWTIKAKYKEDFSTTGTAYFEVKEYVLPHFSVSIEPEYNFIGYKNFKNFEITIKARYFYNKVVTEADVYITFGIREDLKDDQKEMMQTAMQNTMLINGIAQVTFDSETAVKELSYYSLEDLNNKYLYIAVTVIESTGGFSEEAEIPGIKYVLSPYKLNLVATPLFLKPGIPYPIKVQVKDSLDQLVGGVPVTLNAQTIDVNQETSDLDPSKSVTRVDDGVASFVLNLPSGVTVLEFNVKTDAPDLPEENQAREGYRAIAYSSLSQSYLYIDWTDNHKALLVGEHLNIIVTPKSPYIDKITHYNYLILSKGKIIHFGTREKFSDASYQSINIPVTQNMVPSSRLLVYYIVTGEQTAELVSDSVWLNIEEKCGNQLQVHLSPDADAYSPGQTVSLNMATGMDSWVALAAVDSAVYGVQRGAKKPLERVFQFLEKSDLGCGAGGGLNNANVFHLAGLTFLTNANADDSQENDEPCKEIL
T2 sequence (P01031 678-1676 limits assumed, chain 2 of 2): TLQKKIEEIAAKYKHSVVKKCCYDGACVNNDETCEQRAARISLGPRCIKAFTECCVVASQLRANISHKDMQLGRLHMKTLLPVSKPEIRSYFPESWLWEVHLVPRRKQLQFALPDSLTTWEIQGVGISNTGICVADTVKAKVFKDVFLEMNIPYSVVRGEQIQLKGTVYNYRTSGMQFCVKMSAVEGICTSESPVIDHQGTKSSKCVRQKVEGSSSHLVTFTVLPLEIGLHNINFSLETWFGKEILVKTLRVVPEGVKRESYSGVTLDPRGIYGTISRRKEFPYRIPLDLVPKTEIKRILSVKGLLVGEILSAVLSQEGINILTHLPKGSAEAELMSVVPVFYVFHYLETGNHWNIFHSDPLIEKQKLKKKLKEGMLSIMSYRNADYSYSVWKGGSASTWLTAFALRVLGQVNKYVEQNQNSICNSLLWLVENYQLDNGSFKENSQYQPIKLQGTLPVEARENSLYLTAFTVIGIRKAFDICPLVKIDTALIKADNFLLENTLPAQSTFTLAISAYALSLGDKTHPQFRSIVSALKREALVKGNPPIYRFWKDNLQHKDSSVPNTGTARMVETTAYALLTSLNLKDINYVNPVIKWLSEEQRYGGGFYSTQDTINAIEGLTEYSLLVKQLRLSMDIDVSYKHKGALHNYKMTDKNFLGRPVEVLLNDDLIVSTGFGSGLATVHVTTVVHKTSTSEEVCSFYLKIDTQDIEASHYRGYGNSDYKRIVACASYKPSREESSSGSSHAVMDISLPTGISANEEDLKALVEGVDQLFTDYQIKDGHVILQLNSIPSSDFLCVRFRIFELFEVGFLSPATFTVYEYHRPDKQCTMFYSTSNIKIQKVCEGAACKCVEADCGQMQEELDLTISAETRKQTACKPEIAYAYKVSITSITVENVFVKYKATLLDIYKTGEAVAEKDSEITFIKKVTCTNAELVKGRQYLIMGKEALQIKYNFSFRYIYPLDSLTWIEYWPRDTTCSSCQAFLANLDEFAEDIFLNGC
T1 sequence (P08650 19-1681 limits assumed): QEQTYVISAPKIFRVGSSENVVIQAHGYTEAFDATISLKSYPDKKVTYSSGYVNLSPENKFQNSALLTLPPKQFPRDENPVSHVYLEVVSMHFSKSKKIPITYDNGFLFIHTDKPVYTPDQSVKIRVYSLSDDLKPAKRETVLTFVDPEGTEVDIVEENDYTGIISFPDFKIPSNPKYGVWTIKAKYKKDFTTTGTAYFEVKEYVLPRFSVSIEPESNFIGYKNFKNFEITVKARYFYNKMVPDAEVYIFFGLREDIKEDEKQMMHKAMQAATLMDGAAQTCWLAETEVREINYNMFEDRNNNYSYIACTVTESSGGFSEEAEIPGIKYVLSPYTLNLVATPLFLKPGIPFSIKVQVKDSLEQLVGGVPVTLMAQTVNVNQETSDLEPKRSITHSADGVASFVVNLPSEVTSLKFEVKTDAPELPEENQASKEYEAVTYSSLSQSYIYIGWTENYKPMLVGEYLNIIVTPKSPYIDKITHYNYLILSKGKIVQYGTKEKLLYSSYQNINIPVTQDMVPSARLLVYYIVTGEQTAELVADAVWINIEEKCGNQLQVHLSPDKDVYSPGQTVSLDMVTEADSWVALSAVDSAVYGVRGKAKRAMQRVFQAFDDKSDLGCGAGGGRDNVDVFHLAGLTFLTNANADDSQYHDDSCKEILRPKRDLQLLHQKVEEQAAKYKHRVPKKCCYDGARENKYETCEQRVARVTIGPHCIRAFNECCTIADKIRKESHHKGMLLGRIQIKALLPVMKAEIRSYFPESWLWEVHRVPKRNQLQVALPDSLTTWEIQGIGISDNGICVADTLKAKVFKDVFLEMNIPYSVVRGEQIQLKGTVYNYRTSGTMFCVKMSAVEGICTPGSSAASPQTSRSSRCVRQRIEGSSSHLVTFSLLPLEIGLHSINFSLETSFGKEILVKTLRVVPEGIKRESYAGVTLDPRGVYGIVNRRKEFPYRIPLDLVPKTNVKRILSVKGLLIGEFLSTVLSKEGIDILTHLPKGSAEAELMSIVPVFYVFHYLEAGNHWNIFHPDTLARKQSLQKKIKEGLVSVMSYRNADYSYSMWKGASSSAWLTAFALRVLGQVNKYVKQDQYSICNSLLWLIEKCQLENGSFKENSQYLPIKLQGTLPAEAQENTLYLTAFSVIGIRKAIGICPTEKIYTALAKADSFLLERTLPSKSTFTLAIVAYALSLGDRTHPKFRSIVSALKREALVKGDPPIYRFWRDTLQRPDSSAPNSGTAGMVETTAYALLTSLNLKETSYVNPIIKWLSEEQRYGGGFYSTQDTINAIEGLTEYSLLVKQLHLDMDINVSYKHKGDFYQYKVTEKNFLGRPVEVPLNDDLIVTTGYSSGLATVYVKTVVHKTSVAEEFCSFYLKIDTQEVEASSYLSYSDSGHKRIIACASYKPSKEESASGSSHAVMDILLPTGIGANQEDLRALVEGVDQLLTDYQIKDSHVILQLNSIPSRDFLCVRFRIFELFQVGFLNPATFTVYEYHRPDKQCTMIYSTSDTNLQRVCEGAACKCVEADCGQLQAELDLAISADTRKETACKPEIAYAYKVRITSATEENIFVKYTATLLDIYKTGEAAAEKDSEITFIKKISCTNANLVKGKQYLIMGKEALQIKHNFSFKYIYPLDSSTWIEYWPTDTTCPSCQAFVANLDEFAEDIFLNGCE

B1: K57chemFE knob domain peptide (peptide)
peptide: GCPPGYKSGVDCSPGSECKWGCYAVDGRRYGGYGADSGVGS
Rat C5
  binding result: no binding
[1]
  classical pathway complement ELISA (C5b deposition); IC50 (read off the curve): ~20 nM
[2]
  classical pathway haemolysis assay; IC50 (read off the curve): ~20 nM
[3]
  Kd: 2.28 nM
  koff: 0.000579 s⁻¹
  kon: 260000 M⁻¹ s⁻¹
[4]
  alternative pathway complement ELISA (C5b deposition); IC50 (read off the curve): ~90 nM

B2: hC3nb1 VHH with C-terminal single-chain Fc tag (VHH, not shown: a dimerising Fc or GST)
VHH: QVQLVETGGGLVQAGGSLRLSCAASGSIFSLNAMGWFRQAPGKEREFVATINRSGGRTYYADSVKGRFTISRDNGKNMVYLQMHSLKPEDTAIYYCAAGTGWSPQTDNEYNYWGQGTQVTVSS
notes: also called hC3Nb1 WT
[5]
  Kd: 0.163 nM
[6]
  classical pathway C5b neoepitope ELISA; IC50 (read off the curve): ~10 nM
[7]
  binding result: no binding
[8]
  alternative pathway C5b neoepitope ELISA; IC50 (read off the curve): ~100 nM

B3: K57 knob domain peptide cleaved from the 645 Fab (peptide)
peptide: GSSGCPPGYKSGVDCSPGSECKWGCYAVDGRRYGGYGADSGVENLYFQ
notes: Recombinant, cut out by TEV protease
[9]
  Kd: 1.4 nM
  koff: 0.000408 s⁻¹
  kon: 298000 M⁻¹ s⁻¹
Mouse C5
  binding result: no binding
[10]
  Kd: < 40 nM
[11]
  Inhibition of alternative pathway mediated C5a release, average Emax: 97.8%
  Inhibition of alternative pathway mediated C5a release, geomean IC50: 26.6 nM
[12]
  IC50: 4 nM and 3.2 nM and 3.5 nM and 3.6 nM
  Ki: 1.8 nM
[13]
  AP mediated bacterial killing assay, IC50: 1220 nM
[14]
  Inhibition of alternative pathway mediated bacterial lysis, average Emax: 122%
  Inhibition of alternative pathway mediated bacterial lysis, geomean IC50: 1020 nM
[15]
  Inhibition of classical pathway mediated C5a release, geomean IC50: 4 nM
[16]
  Inhibition of classical pathway mediated bacterial lysis, geomean IC50: 115 nM
[17]
  binding result: no binding
ovalbumin
  binding result: no binding
